Measured values taken from publication PMC12139721.

Molecular target: CUL5-RBX2 (human | mouse) (UniProt Q93034)
Test: SEC + native MS

UniProt Q93034, sequence (Q93034 whole entry, chain 1 of 2): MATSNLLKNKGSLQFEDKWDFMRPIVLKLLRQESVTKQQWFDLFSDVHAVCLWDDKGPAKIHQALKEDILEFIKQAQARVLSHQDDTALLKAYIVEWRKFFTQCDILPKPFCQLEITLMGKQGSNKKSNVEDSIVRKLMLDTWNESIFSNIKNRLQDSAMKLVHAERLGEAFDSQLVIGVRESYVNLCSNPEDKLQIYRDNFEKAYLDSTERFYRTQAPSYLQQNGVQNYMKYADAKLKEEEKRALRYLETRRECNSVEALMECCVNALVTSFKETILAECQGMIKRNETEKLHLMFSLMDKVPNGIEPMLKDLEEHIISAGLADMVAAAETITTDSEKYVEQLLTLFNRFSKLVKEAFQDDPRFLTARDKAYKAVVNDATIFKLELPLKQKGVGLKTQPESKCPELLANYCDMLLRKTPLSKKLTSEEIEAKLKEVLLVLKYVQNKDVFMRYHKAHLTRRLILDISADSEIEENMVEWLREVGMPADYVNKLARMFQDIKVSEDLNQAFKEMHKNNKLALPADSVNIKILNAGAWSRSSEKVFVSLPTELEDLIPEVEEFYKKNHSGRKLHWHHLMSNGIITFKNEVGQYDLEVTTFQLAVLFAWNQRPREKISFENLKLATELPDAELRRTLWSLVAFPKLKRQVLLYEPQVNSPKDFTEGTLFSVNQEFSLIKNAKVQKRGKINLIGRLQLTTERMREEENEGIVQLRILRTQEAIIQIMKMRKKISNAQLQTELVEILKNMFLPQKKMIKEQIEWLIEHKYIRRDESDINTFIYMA
UniProt Q93034, sequence (Q9WTZ1 whole entry, chain 2 of 2, further chain): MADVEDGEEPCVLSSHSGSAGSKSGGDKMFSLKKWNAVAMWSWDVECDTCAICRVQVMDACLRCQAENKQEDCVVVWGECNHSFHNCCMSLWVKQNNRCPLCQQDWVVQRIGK

PCMTD1-ELOBC (from UniProt Q96MG8;Q15370;Q15369) (complex)
stoichiometry N: 1
